The RNAGym collection of RNA variant scans (doi:10.1093/molbev/msab373)

B1: Azoarcus group I ribozyme (parent)
chain: GUGCCUUGCGCCGGGAAACCACGCAAGGGAUGGUGUCAAAUUCGGCGAAACCUAAGCGCCCGCCCGGGCGUAUGGCAACGCCGAGCCAAGCUUCGGCGCCUGCGCCGAUGAAGGUGUAGAGACUAGACGGCACCCACCUAAGGCAAACGCUAUGGUGAAGGCAUAGUCCAGGGAGUGGCGAAAGUCACACAAACCGG

Variants of: B1
Experiment: reverse-splicing fitness (ratio to wild type); higher = more active; in vitro selection; Mg2+ level not given
How it was run: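 An in vitro group I ribozyme library with randomized positions was T7-transcribed and gel-purified. In triplicate, 10 pmol RNA in EPPS pH 7.5 was reacted with 50 pmoles of a 30-nt RNA substrate for 1 h at 37 °C across several added MgCl2 levels (1–48 mM), then stopped with EDTA. Products were reverse transcribed from a substrate-complementary primer, PCR-amplified and sequenced (HiSeq 4000). Fitness is a variant's read proportion after selection over that before, normalised to wild type.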
Work on A111C A120C C150G C169G U176C yielded a reverse-splicing fitness of 0.00683.
A111C A120C C150G C169G U176G gave a reverse-splicing fitness of 0.00564.
Variant A111C A120C C150G C169G U176A has a reverse-splicing fitness of 0.00796.
For A111C A120C C169G U176C, the reverse-splicing fitness was 0.021.
Work on A111C A120C C169G U176G yielded a reverse-splicing fitness of 0.00524.
Work on A111C A120C C169G U176A yielded a reverse-splicing fitness of 0.0157.
In the case of A111C A120C A145U C150A C169A U176A, the reverse-splicing fitness is reported as 0.0108.
A111C A120C A145U C150A C169A U176C gave a reverse-splicing fitness of 0.0085.
A111C A120C A145U C150A C169A U176G gave a reverse-splicing fitness of 0.0061.
C82U C150U C169G U176G gave a reverse-splicing fitness of 0.0052.
C82U C150U C169G U176A showed a reverse-splicing fitness of 0.0135.
C82U C150U C169G U176C gave a reverse-splicing fitness of 0.015.
A111C gave a reverse-splicing fitness of 0.872.
A111C A120C A145G C150A C169U U176A showed a reverse-splicing fitness of 0.0207.
In the case of A111C A120C A145G C150A C169U U176G, the reverse-splicing fitness is reported as 0.00728.
Variant A111C A120C A145G C150A C169U U176C has a reverse-splicing fitness of 0.024.
In the case of C82U C150A, the reverse-splicing fitness is reported as 0.0698.
Variant C82U C150G has a reverse-splicing fitness of 0.051.
In the case of C82U C150U, the reverse-splicing fitness is reported as 0.369.
A111C A120C A145C C150A C169G gave a reverse-splicing fitness of 0.0073.
A111C A120C A145C C150A C169A showed a reverse-splicing fitness of 0.00839.
In the case of A111C A120C A145C C150A C169U, the reverse-splicing fitness is reported as 0.0161.
A111C A120C C150A C169G U176A gave a reverse-splicing fitness of 0.0198.
For A111C A120C C150A C169G U176G, the reverse-splicing fitness was 0.00744.
In the case of A111C A120C C150A C169G U176C, the reverse-splicing fitness is reported as 0.021.
Variant A111C A120C A145C C150U C169A U176G has a reverse-splicing fitness of 0.00703.
A111C A120C A145C C150U C169A U176A showed a reverse-splicing fitness of 0.0107.
With A111C A120C A145C C150U C169A U176C the reverse-splicing fitness was 0.005.
A111C A120C A145U C169G U176A showed a reverse-splicing fitness of 0.0103.
In the case of A111C A120C A145U C169G U176C, the reverse-splicing fitness is reported as 0.0123.
A111C A120C A145U C169G U176G gave a reverse-splicing fitness of 0.00445.
With A111C A120C C150U C169A U176G the reverse-splicing fitness was 0.00561.
A111C A120C C150U C169A U176A showed a reverse-splicing fitness of 0.0172.
With A111C A120C C150U C169A U176C the reverse-splicing fitness was 0.0142.
Work on A111C A120C A145G C150G C169U U176G yielded a reverse-splicing fitness of 0.0071.
For A111C A120C A145G C150G C169U U176C, the reverse-splicing fitness was 0.0128.
In the case of A111C A120C A145G C150G C169U U176A, the reverse-splicing fitness is reported as 0.0114.
Work on A111C A120C A145C U176G yielded a reverse-splicing fitness of 0.0513.
In the case of A111C A120C A145C U176C, the reverse-splicing fitness is reported as 0.197.
Variant A111C A120C A145C U176A has a reverse-splicing fitness of 0.172.
A111C A120C A145G C169U U176G gave a reverse-splicing fitness of 0.00591.
A111C A120C A145G C169U U176A showed a reverse-splicing fitness of 0.033.
For A111C A120C A145G C169U U176C, the reverse-splicing fitness was 0.0425.
With A111C A120G A145C C150A C169A U176G the reverse-splicing fitness was 0.0054.
A111C A120G A145C C150A C169A U176A gave a reverse-splicing fitness of 0.0112.
Variant A111C A120G A145C C150A C169A U176C has a reverse-splicing fitness of 0.00698.
For A111C A120C A145U C150A C169G U176A, the reverse-splicing fitness was 0.0127.
Work on A111C A120C A145U C150A C169G U176C yielded a reverse-splicing fitness of 0.0146.
In the case of A111C A120C A145U C150A C169G U176G, the reverse-splicing fitness is reported as 0.00651.
A111C A120C A145C C150U showed a reverse-splicing fitness of 0.175.
Variant A111C A120C A145C C150G has a reverse-splicing fitness of 0.0702.
Variant A111C A120C A145C C150A has a reverse-splicing fitness of 0.0308.
With C82U A145U C169U U176G the reverse-splicing fitness was 0.00406.
Variant C82U A145U C169U U176C has a reverse-splicing fitness of 0.0127.
Variant A111C A120C A145U C150A C169U U176C has a reverse-splicing fitness of 0.0144.
A111C A120C A145U C150A C169U U176A gave a reverse-splicing fitness of 0.0195.
With A111C A120C A145U C150A C169U U176G the reverse-splicing fitness was 0.00632.
In the case of A111C A120C A145C C169U, the reverse-splicing fitness is reported as 0.17.
A111C A120C A145C C169A gave a reverse-splicing fitness of 0.00953.
Variant A111C A120C A145C C169G has a reverse-splicing fitness of 0.0105.
In the case of A111C A120C A145U C150A U176G, the reverse-splicing fitness is reported as 0.00986.
With A111C A120C A145U C150A U176C the reverse-splicing fitness was 0.0526.
A111C A120C A145U C150A U176A showed a reverse-splicing fitness of 0.0359.
For A111C A120C A145G C150G C169A, the reverse-splicing fitness was 0.009.
For A111C A120C A145G C150G C169G, the reverse-splicing fitness was 0.00738.
Work on A111C A120C A145G C150G C169U yielded a reverse-splicing fitness of 0.0264.
In the case of A111C A120C A145G C150A C169A, the reverse-splicing fitness is reported as 0.0101.
For A111C A120C A145G C150A C169U, the reverse-splicing fitness was 0.0324.
A111C A120C A145G C150A C169G gave a reverse-splicing fitness of 0.00782.
For A111C A120C A145G C150A C169G U176G, the reverse-splicing fitness was 0.00696.
For A111C A120C A145G C150A C169G U176A, the reverse-splicing fitness was 0.0148.
Work on A111C A120C A145G C150A C169G U176C yielded a reverse-splicing fitness of 0.0253.
A111C A120C A145G C150U C169U gave a reverse-splicing fitness of 0.147.
For A111C A120C A145G C150U C169G, the reverse-splicing fitness was 0.00981.
Variant A111C A120C A145G C150U C169A has a reverse-splicing fitness of 0.0131.
Work on A111C A120C C150A C169A U176C yielded a reverse-splicing fitness of 0.0141.
In the case of A111C A120C C150A C169A U176G, the reverse-splicing fitness is reported as 0.00693.
A111C A120C C150A C169A U176A showed a reverse-splicing fitness of 0.0162.
In the case of C82U C169A U176C, the reverse-splicing fitness is reported as 0.0154.
Work on C82U C169A U176A yielded a reverse-splicing fitness of 0.0127.
Work on C82U C169A U176G yielded a reverse-splicing fitness of 0.00439.
Work on A111C A120C A145G C150A C169A U176G yielded a reverse-splicing fitness of 0.00677.
In the case of A111C A120C A145G C150A C169A U176A, the reverse-splicing fitness is reported as 0.0145.
Variant A111C A120C A145G C150A C169A U176C has a reverse-splicing fitness of 0.0214.
